Results reported in publication PMC11811891, “Structural insights into human TFIIIC promoter recognition” (Science Advances, 2023).

B1: human TFIIIC subunit TFIIIC90 (natural protein)
chain: MNTADQARVGPADDGPAPSGEEEGEGGGEAGGKEPAADAAPGPSAAFRLMVTRREPAVKLQYAVSGLEPLAWSEDHRVSVSTARSIAVLELICDVHNPGQDLVIHRTSVPAPLNSCLLKVGSKTEVAECKEKFAASKDPTVSQTFMLDRVFNPEGKALPPMRGFKYTSWSPMGCDANGRCLLAALTMDNRLTIQANLNRLQWVQLVDLTEIYGERLYETSYRLSKNEAPEGNLGDFAEFQRRHSMQTPVRMEWSGICTTQQVKHNNECRDVGSVLLAVLFENGNIAVWQFQLPFVGKESISSCNTIESGITSPSVLFWWEYEHNNRKMSGLIVGSAFGPIKILPVNLKAVKGYFTLRQPVILWKEMDQLPVHSIKCVPLYHPYQKCSCSLVVAARGSYVFWCLLLISKAGLNVHNSHVTGLHSLPIVSMTADKQNGTVYTCSSDGKVRQLIPIFTDVALKFEHQLIKLSDVFGSVRTHGIAVSPCGAYLAIITTEGMINGLHPVNKNYQVQFVTLKTFEEAAAQLLESSVQNLFKQVDLIDLVRWKILKDKHIPQFLQEALEKKIESSGVTYFWRFKLFLLRILYQSMQKTPSEALWKPTHEDSKILLVDSPGMGNADDEQQEEGTSSKQVVKQGLQERSKEGDVEEPTDDSLPTTGDAGGREPMEEKLLEIQGKIEAVEMHLTREHMKRVLGEVYLHTWITENTSIPTRGLCNFLMSDEEYDDRTARVLIGHISKKMNKQTFPEHCSLCKEILPFTDRKQAVCSNGHIWLRCFLTYQSCQSLIYRRCLLHDSIARHPAPEDPDWIKRLLQSPCPFCDSPVF
notes: TFIIIC90, subunit of human TFIIIC; coding gene from DNASU, codon-optimized for insect cells; No truncation is described; also called τ60 in yeast (homolog); source: Sf21 insect cells, baculovirus, coexpressed with the other five hTFIIIC subunits; purified (anti-FLAG M2 agarose, Capto HiRes Q)
B2: human TFIIIC subunit TFIIIC35 (natural protein)
chain: MAAAADERSPEDGEDEEEEEQLVLVELSGIIDSDFLSKCENKCKVLGIDTERPILQVDSCVFAGEYEDTLGTCVIFEENVEHADTEGNNKTVLKYKCHTMKKLSMTRTLLTEKKEGEENIGGVEWLQIKDNDFSYRPNMICNFLHENEDEEVVASAPDKSLELEEEEIQMNDSSNLSCEQEKPMHLEIEDSGPLIDIPSETEGSVFMETQMLP
notes: TFIIIC35, subunit of human TFIIIC; the ordered GTF3C6 gene encoded a serine in position 1, which was replaced by methionine; No truncation is described; also called τ55 in yeast (homolog); GTF3C6; source: Sf21 insect cells, baculovirus, coexpressed with the other five hTFIIIC subunits; purified (anti-FLAG M2 agarose, Capto HiRes Q)
B3: human TFIIIC subunit TFIIIC63 (natural protein)
chain: MAAEAADLGLGAAVPVELRRERRMVCVEYPGVVRDVAKMLPTLGGEEGVSRIYADPTKRLELYFRPKDPYCHPVCANRFSTSSLLLRIRKRTRRQKGVLGTEAHSEVTFDMEILGIISTIYKFQGMSDFQYLAVHTEAGGKHTSMYDKVLMLRPEKEAFFHQELPLYIPPPIFSRLDAPVDYFYRPETQHREGYNNPPISGENLIGLSRARRPHNAIFVNFEDEEVPKQPLEAAAQTWRRVCTNPVDRKVEEELRKLFDIRPIWSRNAVKANISVHPDKLKVLLPFIAYYMITGPWRSLWIRFGYDPRKNPDAKIYQVLDFRIRCGMKHGYAPSDLPVKAKRSTYNYSLPITVKKTSSQLVTMHDLKQGLGPSGTSGARKPASSKYKLKDSVYIFREGALPPYRQMFYQLCDLNVEELQKIIHRNDGAENSCTERDGWCLPKTSDELRDTMSLMIRQTIRSKRPALFSSSAKADGGKEQLTYESGEDEEDEEEEEEEEEDFKPSDGSENEMETEILDYV
notes: TFIIIC63, subunit of human TFIIIC; coding gene from DNASU, codon-optimized for insect cells; No truncation is described; also called τ95 in yeast (homolog); GTC3C5 (so in the source); source: Sf21 insect cells, baculovirus, coexpressed with the other five hTFIIIC subunits; purified (anti-FLAG M2 agarose, Capto HiRes Q)
B4: human TFIIIC subunit TFIIIC110 (natural protein)
chain: MDTCGVGYVALGEAGPVGNMTVVDSPGQEVLNQLDVKTSSEMTSAEASVEMSLPTPLPGFEDSPDQRRLPPEQESLSRLEQPDLSSEMSKVSKPRASKPGRKRGGRTRKGPKRPQQPNPPSAPLVPGLLDQSNPLSTPMPKKRGRKSKAELLLLKLSKDLDRPESQSPKRPPEDFETPSGERPRRRAAQVALLYLQELAEELSTALPAPVSCPEGPKVSSPTKPKKIRQPAACPGGEEVDGAPRDEDFFLQVEAEDVEESEGPSESSSEPEPVVPRSTPRGSTSGKQKPHCRGMAPNGLPNHIMAPVWKCLHLTKDFREQKHSYWEFAEWIPLAWKWHLLSELEAAPYLPQEEKSPLFSVQREGLPEDGTLYRINRFSSITAHPERWDVSFFTGGPLWALDWCPVPEGAGASQYVALFSSPDMNETHPLSQLHSGPGLLQLWGLGTLQQESCPGNRAHFVYGIACDNGCIWDLKFCPSGAWELPGTPRKAPLLPRLGLLALACSDGKVLLFSLPHPEALLAQQPPDAVKPAIYKVQCVATLQVGSMQATDPSECGQCLSLAWMPTRPHQHLAAGYYNGMVVFWNLPTNSPLQRIRLSDGSLKLYPFQCFLAHDQAVRTLQWCKANSHFLVSAGSDRKIKFWDLRRPYEPINSIKRFLSTELAWLLPYNGVTVAQDNCYASYGLCGIHYIDAGYLGFKAYFTAPRKGTVWSLSGSDWLGTIAAGDISGELIAAILPDMALNPINVKRPVERRFPIYKADLIPYQDSPEGPDHSSASSGVPNPPKARTYTETVNHHYLLFQDTDLGSFHDLLRREPMLRMQEGEGHSQLCLDRLQLEAIHKVRFSPNLDSYGWLVSGGQSGLVRIHFVRGLASPLGHRMQLESRAHFNAMFQPSSPTRRPGFSPTSHRLLPTP
notes: TFIIIC110, subunit of human TFIIIC; No truncation is described; also called τ91 in yeast (homolog); GTF3C2; source: Sf21 insect cells, baculovirus, coexpressed with the other five hTFIIIC subunits; purified (anti-FLAG M2 agarose, Capto HiRes Q)
B5: human TFIIIC subunit TFIIIC102 (natural protein)
chain: MSGFSPELIDYLEGKISFEEFERRREERKTREKKSLQEKGKLSAEENPDDSEVPSSSGINSTKSQDKDVNEGETSDGVRKSVHKVFASMLGENEDDEEEEEEEEEEEEEEETPEQPTAGDVFVLEMVLNRETKKMMKEKRPRSKLPRALRGLMGEANIRFARGEREEAILMCMEIIRQAPLAYEPFSTLAMIYEDQGDMEKSLQFELIAAHLNPSDTEEWVRLAEMSLEQDNIKQAIFCYTKALKYEPTNVRYLWERSSLYEQMGDHKMAMDGYRRILNLLSPSDGERFMQLARDMAKSYYEANDVTSAINIIDEAFSKHQGLVSMEDVNIAAELYISNKQYDKALEIITDFSGIVLEKKTSEEGTSEENKAPENVTCTIPDGVPIDITVKLMVCLVHLNILEPLNPLLTTLVEQNPEDMGDLYLDVAEAFLDVGEYNSALPLLSALVCSERYNLAVVWLRHAECLKALGYMERAAESYGKVVDLAPLHLDARISLSTLQQQLGQPEKALEALEPMYDPDTLAQDANAAQQELKLLLHRSTLLFSQGKMYGYVDTLLTMLAMLLKVAMNRAQVCLISSSKSGERHLYLIKVSRDKISDSNDQESANCDAKAIFAVLTSVLTKDDWWNLLLKAIYSLCDLSRFQEAELLVDSSLEYYSFYDDRQKRKELEYFGLSAAILDKNFRKAYNYIRIMVMENVNKPQLWNIFNQVTMHSQDVRHHRFCLRLMLKNPENHALCVLNGHNAFVSGSFKHALGQYVQAFRTHPDEPLYSFCIGLTFIHMASQKYVLRRHALIVQGFSFLNRYLSLRGPCQESFYNLGRGLHQLGLIHLAIHYYQKALELPPLVVEGIELDQLDLRRDIAYNLSLIYQSSGNTGMAQTLLYTYCSI
notes: TFIIIC102, subunit of human TFIIIC; No truncation is described; also called τ131 in yeast (homolog); GTF3C3; source: Sf21 insect cells, baculovirus, coexpressed with the other five hTFIIIC subunits; purified (anti-FLAG M2 agarose, Capto HiRes Q)

Tests used:
[1] = molecular target: T1, human TFIIIC subunit TFIIIC220 (human, UniProt Q12789 1-2109); assay: mass photometry; purified hTFIIIC alone; 1 μl of sample at 400 nM added to 19 μl of 20 mM Hepes pH 8, 150 mM KCl, 2 mM MgCl2, 5 mM DTT; Refeyn TwoMP; nanomolar concentrations; settings: both partners purified
T1 construct: TFIIIC220, largest subunit of human TFIIIC; 2109 amino acids as printed; No truncation is described; the expected mass of 624 kDa is that of the intact complex; also called τ138 in yeast (homolog); GTF3C1; source: Sf21 insect cells, baculovirus, coexpressed with the other five hTFIIIC subunits; purified (anti-FLAG M2 agarose, Capto HiRes Q); not shown: 3x FLAG, C-terminal, kept

[2] = molecular target: B3; assay: cryo-EM structure; purified hTFIIIC (3.17 μM) alone or with human TRR-TCT3-2 tRNA gene DNA at a 1:1 molar ratio; EM buffer 20 mM Hepes pH 8, 225 mM KCl, 2 mM MgCl2, 5 mM DTT; 0.1% octyl-β-glucoside; separate reconstructions of τA and of dimeric τB; settings: both partners purified
[3] = molecular target: the molecule itself; assay: as above

T1 sequence (Q12789 whole entry, the tested form may be a part): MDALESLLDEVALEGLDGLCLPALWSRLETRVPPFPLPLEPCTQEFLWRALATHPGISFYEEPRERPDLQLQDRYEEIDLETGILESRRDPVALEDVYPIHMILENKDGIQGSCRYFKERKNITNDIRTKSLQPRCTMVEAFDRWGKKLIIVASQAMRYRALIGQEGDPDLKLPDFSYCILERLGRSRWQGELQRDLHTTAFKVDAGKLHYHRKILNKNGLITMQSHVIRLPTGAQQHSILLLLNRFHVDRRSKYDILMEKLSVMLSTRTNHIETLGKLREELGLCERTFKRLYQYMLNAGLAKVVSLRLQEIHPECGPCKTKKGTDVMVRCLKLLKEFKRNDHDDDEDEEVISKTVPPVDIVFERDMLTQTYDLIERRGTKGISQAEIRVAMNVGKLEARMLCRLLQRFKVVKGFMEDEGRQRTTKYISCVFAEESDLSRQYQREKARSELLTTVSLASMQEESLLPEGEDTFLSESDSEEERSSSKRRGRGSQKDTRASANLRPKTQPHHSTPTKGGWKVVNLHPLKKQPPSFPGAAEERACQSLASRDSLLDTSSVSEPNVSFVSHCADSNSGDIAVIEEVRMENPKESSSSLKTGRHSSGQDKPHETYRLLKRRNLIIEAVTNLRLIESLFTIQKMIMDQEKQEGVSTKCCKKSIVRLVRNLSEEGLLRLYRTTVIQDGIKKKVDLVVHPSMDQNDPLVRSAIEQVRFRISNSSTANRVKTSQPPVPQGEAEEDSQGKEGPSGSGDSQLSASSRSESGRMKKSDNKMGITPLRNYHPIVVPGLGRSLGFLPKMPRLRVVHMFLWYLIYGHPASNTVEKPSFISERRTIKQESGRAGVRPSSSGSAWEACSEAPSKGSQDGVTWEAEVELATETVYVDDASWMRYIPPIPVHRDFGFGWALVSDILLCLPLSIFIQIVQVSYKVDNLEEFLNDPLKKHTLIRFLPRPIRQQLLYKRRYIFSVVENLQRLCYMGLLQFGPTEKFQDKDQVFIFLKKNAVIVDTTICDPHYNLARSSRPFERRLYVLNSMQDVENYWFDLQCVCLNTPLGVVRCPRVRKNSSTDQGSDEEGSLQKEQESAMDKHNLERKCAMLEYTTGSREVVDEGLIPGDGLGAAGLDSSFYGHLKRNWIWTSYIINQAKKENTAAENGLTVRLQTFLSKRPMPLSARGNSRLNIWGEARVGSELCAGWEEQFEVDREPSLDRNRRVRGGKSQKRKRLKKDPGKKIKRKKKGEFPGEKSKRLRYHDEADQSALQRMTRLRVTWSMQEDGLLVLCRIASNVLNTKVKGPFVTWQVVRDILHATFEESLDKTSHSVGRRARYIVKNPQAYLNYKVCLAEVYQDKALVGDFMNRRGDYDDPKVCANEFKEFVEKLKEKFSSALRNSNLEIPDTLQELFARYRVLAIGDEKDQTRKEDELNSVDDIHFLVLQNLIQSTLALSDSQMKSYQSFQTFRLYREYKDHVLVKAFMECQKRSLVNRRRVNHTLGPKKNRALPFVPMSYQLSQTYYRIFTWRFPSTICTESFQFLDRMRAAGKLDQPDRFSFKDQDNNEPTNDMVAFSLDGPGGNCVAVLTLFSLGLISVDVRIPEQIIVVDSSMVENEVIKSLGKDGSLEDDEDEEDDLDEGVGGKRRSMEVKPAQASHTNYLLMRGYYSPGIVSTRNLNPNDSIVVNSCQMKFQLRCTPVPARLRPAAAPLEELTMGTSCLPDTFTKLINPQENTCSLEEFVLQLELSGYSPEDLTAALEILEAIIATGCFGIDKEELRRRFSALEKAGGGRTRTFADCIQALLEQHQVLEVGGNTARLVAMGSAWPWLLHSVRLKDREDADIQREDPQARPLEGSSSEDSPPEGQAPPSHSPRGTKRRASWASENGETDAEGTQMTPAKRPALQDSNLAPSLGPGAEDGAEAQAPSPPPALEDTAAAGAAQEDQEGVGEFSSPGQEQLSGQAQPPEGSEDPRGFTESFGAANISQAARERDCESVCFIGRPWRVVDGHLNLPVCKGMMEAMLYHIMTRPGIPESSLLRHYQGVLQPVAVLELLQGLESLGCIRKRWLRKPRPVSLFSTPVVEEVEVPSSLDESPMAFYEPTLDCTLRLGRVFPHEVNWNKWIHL

Row | Binder | binding result [1] | binding result [2] | stoichiometry N [3]
1 | B1 | binds | – | –
2 | B2 | binds | binds | –
3 | B3 | binds | – | –
4 | B4 | binds | – | 2
5 | B5 | binds | – | –
